Patent US20080230399A1, “Fructosylamine Oxidase” (priority 2003, published 2008)

Assay: Determination of enzymatic activity (POD/Phenol/4A.A. method)
Assay type: biochemical
Conditions: substrate 10 mM, PPb pH 7.0 50 mM, absorbance at 505 nm; recombinant FAO produced by Escherichia coli compared with enzyme produced by wild-type Pichia sp. N1-1
Method: Reactivity of the purified enzyme prepared in Example 5 to fructosyl valine, N′-fructosyl lysine, fructosyl glycine, fructosyl alanine, fructosyl leucine, fructosyl phenylalanine, glucose and sarcosine was examined. The measurement was conducted using a solution containing a substrate (10 mM), PPb (pH 7.0, 50 mM), phenol (1.5 mM), 4-aminoantipyrine (1.5 mM) and peroxidase (2 U/ml), and changes in the absorbance at 505 nm were measured according to the POD/Phenol/4A.A. method. […] N1-1 strain of wild type.

B1: recombinant FAO: Fructosylamine oxidase derived from Pichia sp. N1-1 (SEQ ID NO: 1), recombinantly produced in Escherichia coli DH5α/pTN1 and purified (protein, listed as Pichia sp.)
chain: MESIIIVGAGTFGLSTALQLARDGYKNIKCFDKFPVPSEIAAGNDSNKIFHYDYVAPLAKPNSKERLSLEALHLWKTDPVYKPYYHPVGFILAASSDAPLLHDKEYYEELQKNGLRNYRYISTPEEFREYLPILKGPLPNWRGYVLDGDNGWLHARDSLKSAYEECKRLGVEFVFGDDGEIVELLNENGKLTGIRARSGAIFSAQKYVLSSGANAVTLLNFQRQLEGKCFTLAHFKVTDEEAKAFKSLPVLFNAEKGFFFEADENNEIKICNEYPGFTHTNESGESIPLYRMEIPLESALEIRQYLKETMPQFADRPFTKTRICWCTDSPDMQLILCTHPEYTNLIVASGDSGNSFKIMPIIGKYVSKVVTKGDKGLDPEDKECWKWRPETWDKRGQVRWGGRYRVADLNEIEEWVSVENPTPHKLE
activity and substrate specificity of the enzyme: higher activity
